For this assay, the target named is native human CD4 on cells (SupT1 T cell line; human PBL/PBMC) (human) (UniProt P01730). The assay can be described thus: ratio of BIAcore Ka on rCD4 to flow cytometry Ka on nCD4.

Take chimeric Leu3a (antibody): the Ration of Ka (rCD4/nCD4) worked out at 6.1.

Source of the values: patent US7041871.
